Assays:
[1] = Lead acetate (PbA/PbS) assay, catalytic H2S production from cysteine; assay type: biochemical
Protocol: Further work was conducted as follows with regard to the catalytic production of H2S by PHFs. PHF (SJJR; 10 mg/mL) was added to a mixture of L-cysteine (10 mM) and […] (PLP; 1 mM) in a 96-well plate and then covered with a blotting paper saturated with lead acetate. After 24 hours, the lead acetate paper was removed and scanned. The lead sulfide dots were analyzed for average integrated density using ImageJ. After every 24 hours, the wells were replenished with L-cysteine (10 mM) and covered with the lead acetate paper and the lead sulfide dots were analyzed.
Lead acetate assay: The kinetics and catalysis coefficients for PHF catalyzed H2S production were determined using lead acetate assay (PbA/PbS assay) as generally described in Hine and Mitchell, “Endpoint and Kinetic Measurement of Hydrogen Sulfide Production Capacity in Tissue Extracts” Bio-Protocol, 7 (13), e2382, 2017). Briefly: Reaction mixtures (150 μL/well) containing PHF or enzyme (CGL), enzyme co-factor (PLP) and substrate (e.g., cysteine) were tested in 96-well plates Immediately after addition of catalyst, 96-well plates were covered with lead acetate saturated paper and placed inside a 37° C. cell culture incubator. At a predetermined time point, the lead acetate paper was removed and scanned, and the lead sulfide dots analyzed with ImageJ using the IntDen function. A calibration curve was prepared with different concentrations of sodium hydrosulfide plotted against the integrated density obtained on lead acetate/lead sulfide paper. The presence of pyruvic acid after reaction was confirmed in a preliminary experiment by liquid chromatography—mass spectroscopy.
To determine the steady-state kinetic parameters experiments were carried out with different initial substrate concentrations. The initial (linear) slope from the graph of H2S concentration versus time at each substrate concentration was used to determine the reaction velocity, which was plotted against initial cysteine concentrations to obtain Michaelis-Menten curves (FIGS. 5 and 6). Least squares non-linear fitting was used to determine values of Km and Vmax from the equation v=Vmax [S]/(Km+[S]).

HR-TEM size = assay type: physicochemical
Excerpt: FIG. 3: Panel A) a hypothetical schematic illustration of the breakdown of cysteine to hydrogen sulfide, ammonia and pyruvic acid. While the present disclosure is not limited to any particular mechanism and an understanding of the mechanism is not necessary to practice the invention, it is believed that polyhydroxy fullerenes (PHF) mimic carbon-sulfur lyases. It was found during work conducted during development of embodiments herein that PHFs catalyze the breakdown of cysteine under physiological conditions. Panel B) HR-TEM image of PHF (C60(OH)9O7Na6) showing a cluster size of 3.4±0.5 nm. Panel C) HR-TEM image of CGL showing a molecular size of 4.1±0.4 nm.

[2] = Without PLP, substrate L-Cysteine

Cc1ncc(COP(=O)(O)O)c(C=O)c1O [PLP, pyridoxal-5′-phosphate, reference compound] gave an H2S produced ([1]; PLP with cysteine, no PHF, in 24 hours) of 0.024 mM.

B1: cystathionine γ-lyase (protein, UniProt P32929 1-405, looked up)
Cystathionine gamma-lyase: MQEKDASSQGFLPHFQHFATQAIHVGQDPEQWTSRAVVPPISLSTTFKQGAPGQHSGFEYSRSGNPTRNCLEKAVAALDGAKYCLAFASGLAATVTITHLLKAGDQIICMDDVYGGTNRYFRQVASEFGLKISFVDCSKIKLLEAAITPETKLVWIETPTNPTQKVIDIEGCAHIVHKHGDIILVVDNTFMSPYFQRPLALGADISMYSATKYMNGHSDVVMGLVSVNCESLHNRLRFLQNSLGAVPSPIDCYLCNRGLKTLHVRMEKHFKNGMAVAQFLESNPWVEKVIYPGLPSHPQHELVKRQCTGCTGMVTFYIKGTLQHAEIFLKNLKLFTLAESLGGFESLAELPAIMTHASVLKNDRDVLGISDTLIRLSVGLEDEEDLLEDLDQALKAAHPPSGSHS
notes: enzyme producing H2S from cysteine, comparator catalyst
With B1 the “H2S production at room temperature” value ([1]; PBS) was “produced H2S only in presence of PLP”, the “H2S production at 4° C.” value ([1]; PBS, presence or absence of PLP) was “No H2S was produced” and the KCAT ([1]; With PLP, substrate L-Cysteine) was 130 s⁻¹. For the same molecule, the Km ([1]; With PLP, substrate L-Cysteine) was 25.4 mM, the Vmax ([1]; With PLP, substrate L-Cysteine) was 2.9 nM/s and the KCAT [1, 2] was 5800 s⁻¹. The Vmax [1, 2] was 1.3 nM/s and the molecular size (HR-TEM size) was 4.1±0.4 nm.

From patent US12714679B2, “Fullerenes to treat diseases and conditions” (The Cleveland Clinic Foundation, priority 2018, dated 2026)
